Biological target: MEF2C (pcDNAMEF2C, mouse MEF2C cDNA) (mouse) (UniProt Q8CFN5)
Assay: cell-based or functional assay

MEF2C (pcDNAMEF2C, mouse MEF2C cDNA) (mouse), sequence (Q8CFN5 whole entry): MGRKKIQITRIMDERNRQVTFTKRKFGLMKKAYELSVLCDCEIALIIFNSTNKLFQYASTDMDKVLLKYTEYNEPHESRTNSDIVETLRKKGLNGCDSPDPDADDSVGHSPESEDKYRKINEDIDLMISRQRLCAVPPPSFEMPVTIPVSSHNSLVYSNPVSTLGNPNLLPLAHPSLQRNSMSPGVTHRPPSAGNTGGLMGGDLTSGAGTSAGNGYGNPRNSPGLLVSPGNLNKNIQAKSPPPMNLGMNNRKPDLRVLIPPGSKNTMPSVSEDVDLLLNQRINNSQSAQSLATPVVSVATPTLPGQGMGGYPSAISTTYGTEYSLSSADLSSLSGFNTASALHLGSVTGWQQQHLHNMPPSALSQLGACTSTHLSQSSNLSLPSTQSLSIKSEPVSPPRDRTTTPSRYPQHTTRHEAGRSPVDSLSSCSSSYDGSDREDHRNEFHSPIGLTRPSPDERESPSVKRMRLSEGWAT

hMusTRD1α1944aa (pcDNA3.1hMusTRD1α1944aamyc/his) (from UniProt Q9UHL9 1-959)
MEF2C-mediated transcriptional activation of the hTnIslow USE (luciferase reporter, co-transfected C2C12 cells): 3 fold

Reference: US20050032696A1
